Target: slac1_arath SLAC1 (UniProt Q9LD83)
Sequence (Q9LD83 whole entry): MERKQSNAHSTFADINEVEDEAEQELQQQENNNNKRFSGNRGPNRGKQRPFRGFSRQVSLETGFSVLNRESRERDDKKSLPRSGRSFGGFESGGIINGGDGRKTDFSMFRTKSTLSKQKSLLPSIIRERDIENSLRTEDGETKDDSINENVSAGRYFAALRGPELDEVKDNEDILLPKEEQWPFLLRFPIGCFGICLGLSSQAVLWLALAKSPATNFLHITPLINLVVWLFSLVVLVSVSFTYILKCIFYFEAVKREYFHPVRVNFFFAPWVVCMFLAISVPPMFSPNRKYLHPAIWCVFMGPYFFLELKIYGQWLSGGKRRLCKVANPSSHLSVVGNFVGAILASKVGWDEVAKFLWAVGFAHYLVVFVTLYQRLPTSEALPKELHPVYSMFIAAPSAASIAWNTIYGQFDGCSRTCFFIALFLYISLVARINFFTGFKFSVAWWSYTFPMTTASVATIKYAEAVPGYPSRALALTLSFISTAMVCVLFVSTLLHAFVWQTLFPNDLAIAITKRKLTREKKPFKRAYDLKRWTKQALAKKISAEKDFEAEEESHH

Calcium-dependent protein kinase 23 (Arabidopsis thaliana (Mouse-ear cress)), Q9M101 D193A, sequence (Q9M101 whole entry D193A): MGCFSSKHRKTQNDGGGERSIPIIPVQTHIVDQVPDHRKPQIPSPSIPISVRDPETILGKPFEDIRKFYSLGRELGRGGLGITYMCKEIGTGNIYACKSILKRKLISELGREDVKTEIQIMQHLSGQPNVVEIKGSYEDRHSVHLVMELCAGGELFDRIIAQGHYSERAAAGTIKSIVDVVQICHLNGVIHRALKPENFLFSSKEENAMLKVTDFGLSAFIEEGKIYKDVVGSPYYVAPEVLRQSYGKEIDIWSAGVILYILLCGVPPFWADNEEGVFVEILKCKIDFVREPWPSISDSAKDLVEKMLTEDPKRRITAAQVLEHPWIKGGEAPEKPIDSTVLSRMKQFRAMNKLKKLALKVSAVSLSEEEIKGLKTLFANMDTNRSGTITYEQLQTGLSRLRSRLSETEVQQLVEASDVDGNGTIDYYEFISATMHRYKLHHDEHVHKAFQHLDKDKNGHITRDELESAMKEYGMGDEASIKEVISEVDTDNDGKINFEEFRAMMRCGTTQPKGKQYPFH

Substance: Calcium-dependent protein kinase 23 (Arabidopsis thaliana (Mouse-ear cress)), Q9M101 D193A
- effect of a mutation on the interaction: disrupting interaction

— IntAct's records for PubMed 20385816
